# Test results reported in EP4775226A1, “ANTIBODY DRUG CONJUGATE TARGETING GPC3 AND USE THEREOF” (priority 2023, dated 2025).
# Residue numbers refer to the chain shown, from its start.
# B1: Hu 52H5D3B8-8 (antibody, human IgG1, kappa, V domains shown)
# VH: EVQLVQSGAEVKKPGASVKVSCKASGYTFTDYEMHWVRQAPGQGLEWMGAIHPGSGGTAYNQKFKGRVTMTADKSISTAYMELSRLRSDDTAVYYCTRFYSYAYWGQGTLVTVSS
# VL: DVVMTQTPLSLSVTPGQPASISCRSSQSLVHSNGNTYLQWYLQKPGQSPQLLIYKVSNRFSGVPDRFSGSGSGTDFTLKISRVEAEDVGVYFCSQSIHVPYTFGGGTKVEIKR
# notes: also called humanized GPC3 antibody Hu 52H5D3B8-8; GPC3 antibody
# B2: Y035 CDRs with Hu 52H5D3B8-7 FRs (antibody, V domains shown)
# VH: B1 VH with G57D, K63R
# VL: DVVMTQTPLSLSVTPGQPASISCRSSQSLVHSNGNTYLQWYLQKPGQSPQLLIYKVSNRFSGVPDRFSGSGSGTDFTLKISRVEAEDVGVYYCSQSIYVPYTFGGGTKVEIK
# notes: detected with anti-human IgG
# B3: Hu 52H5D3B8-7 (antibody, human IgG1, kappa, V domains shown)
# VH: B1 VH
# VL: B1 VL with F92Y
# notes: also called humanized GPC3 antibody Hu 52H5D3B8-7
# B4: GC33 antibody (Chugai Pharmaceutical) (antibody, V domains shown)
# VH: QVQLVQSGAEVKKPGASVKVSCKASGYTFTDYEMHWVRQAPGQGLEWMGALDPKTGDTAYSQKFKGRVTLTADKSTSTAYMELSSLTSEDTAVYYCTRFYSYTYWGQGTLVTVSS
# VL: B2 VL with T7S, S12P, Q17E, Q39H, S96N, I97T, Y98H, Y101P, G105Q, V109L
# notes: Control antibody; preparation described in US 7919086 B2; detected with anti-human IgG
# B5: Hu 52H5D3B8-8-mcc-AAN-Exatecan (ADC-2) (antibody, human IgG1, kappa, DAR 8.0, V domains shown)
# VH: B1 VH
# VL: B1 VL
# modifications: mcc-AAN-Exatecan on cysteine thiols freed by reduction of interchain disulfide bonds; DAR 8.0 for the whole antibody; positions not given
# notes: also called Hu 52H5D3B8-8-MCC-AAN-Exa (ADC-2)
# B6: Hu 52H5D3B8-8-mc-AAN-Exatecan (ADC-1) (antibody, human IgG1, kappa, DAR 8.0, V domains shown)
# VH: B1 VH
# VL: B1 VL
# modifications: mc-AAN-Exatecan on cysteine thiols freed by reduction of interchain disulfide bonds; DAR 8.0 for the whole antibody; positions not given
# notes: also called Hu 52H5D3B8-8-MC-AAN-Exa (ADC-1)
# B7: Hu 52H5D3B8-8-mcc-AAQ-Exatecan (ADC-4) (antibody, human IgG1, kappa, DAR 8.0, V domains shown)
# VH: B1 VH
# VL: B1 VL
# modifications: mcc-AAQ-Exatecan on cysteine thiols freed by reduction of interchain disulfide bonds; DAR 8.0 for the whole antibody; positions not given
# notes: also called Hu 52H5D3B8-8-MCC-AAQ-Exa (ADC-4)
# B8: Hu 52H5D3B8-8-mc-AAQ-Exatecan (ADC-3) (antibody, human IgG1, kappa, DAR 8.0, V domains shown)
# VH: B1 VH
# VL: B1 VL
# modifications: mc-AAQ-Exatecan on cysteine thiols freed by reduction of interchain disulfide bonds; DAR 8.0 for the whole antibody; positions not given
# notes: also called Hu 52H5D3B8-8-MC-AAQ-Exa (ADC-3)
# B9: Hu 52H5D3B8-8-MCC-AA-(3-cyano-L-alanine)-Exatecan (ADC-8) (antibody, human IgG1, kappa, DAR 8.0, V domains shown)
# VH: B1 VH
# VL: B1 VL
# modifications: mcc-Ala-Ala-(3-cyano-L-alanine)-Exatecan on cysteine thiols freed by reduction of interchain disulfide bonds; DAR 8.0 for the whole antibody; positions not given
# B10: Hu 52H5D3B8-7-mcc-AAQ-Exatecan (ADC-5) (antibody, human IgG1, kappa, DAR 7.9, V domains shown)
# VH: B1 VH
# VL: B1 VL with F92Y
# modifications: mcc-AAQ-Exatecan on cysteine thiols freed by reduction of interchain disulfide bonds; DAR 7.9 for the whole antibody; positions not given
# B11: Hu 52H5D3B8-7-mcc-AAQ-Exatecan (ADC-7) (antibody, human IgG1, kappa, DAR 4.0, V domains shown)
# VH: B1 VH
# VL: B1 VL with F92Y
# modifications: mcc-AAQ-Exatecan on cysteine thiols freed by partial reduction of interchain disulfide bonds; DAR 4.0 for the whole antibody; positions not given
# B12: Hu 52H5D3B8-8-mcc-AAQ-Exatecan (ADC-6) (antibody, human IgG1, kappa, DAR 4.0, V domains shown)
# VH: B1 VH
# VL: B1 VL
# modifications: mcc-AAQ-Exatecan on cysteine thiols freed by partial reduction of interchain disulfide bonds; DAR 4.0 for the whole antibody; positions not given
# B13: Hu 52H5D3B8-8-MCC-AAAAQ-Exatecan (ADC-9) (antibody, human IgG1, kappa, DAR 8.0, V domains shown)
# VH: B1 VH
# VL: B1 VL
# modifications: mcc-Ala-Ala-Ala-Ala-Gln-Exatecan on cysteine thiols freed by reduction of interchain disulfide bonds; DAR 8.0 for the whole antibody; positions not given
# Target: T1, human GPC3 (Glypican-3) (human, UniProt P51654 25-580)
# T1 construct: whole, on cells; The cell line of each value is named under assay
# T1 sequence (P51654 25-580, form in doubt): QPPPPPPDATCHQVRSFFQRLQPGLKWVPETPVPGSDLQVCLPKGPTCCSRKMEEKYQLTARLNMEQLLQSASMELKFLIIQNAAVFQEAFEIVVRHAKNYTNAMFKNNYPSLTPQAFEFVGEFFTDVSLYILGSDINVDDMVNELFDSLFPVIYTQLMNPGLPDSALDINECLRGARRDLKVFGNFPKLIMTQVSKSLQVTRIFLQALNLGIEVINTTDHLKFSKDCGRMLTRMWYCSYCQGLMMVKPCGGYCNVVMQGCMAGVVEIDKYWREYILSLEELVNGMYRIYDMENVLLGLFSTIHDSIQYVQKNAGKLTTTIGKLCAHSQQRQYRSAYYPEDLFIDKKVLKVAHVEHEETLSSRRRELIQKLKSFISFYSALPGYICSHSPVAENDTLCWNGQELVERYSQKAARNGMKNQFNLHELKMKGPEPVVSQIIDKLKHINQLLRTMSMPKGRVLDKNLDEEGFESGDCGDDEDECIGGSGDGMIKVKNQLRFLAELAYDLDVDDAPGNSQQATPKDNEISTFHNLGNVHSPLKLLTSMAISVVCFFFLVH
# Assay: FACS on HepG2 cells
row,Binder,EC50 [nM]
1,B1,0.351
2,B2,0.611
3,B3,0.405
4,B4,0.745

# Target: T1, human GPC3 (Glypican-3)
# Assay: FACS on Huh-7 cells
row,Binder,EC50 [nM]
1,B1,0.418
2,B2,0.667
3,B3,0.464
4,B4,0.953

# Target: T1, human GPC3 (Glypican-3)
# Assay: cell-based or functional assay
Binder,"Endocytosis on HepG2 cells, EC50 (pHAb dye-labelled secondary antibody) [µg/mL]","Endocytosis on HepG2 cells, Top"
B1,0.78,62400
B2,1.11,52200
B3,0.72,58600

# Target: T1, human GPC3 (Glypican-3)
# Assay: cell-based or functional assay
# Remark: another data set of the same source
Binder,"Percentage reduction of GPC3 on cell surface (%), Huh7 cells, 0.5 h [%]","Percentage reduction of GPC3 on cell surface (%), Huh7 cells, 1 h [%]","Percentage reduction of GPC3 on cell surface (%), Huh7 cells, 2 h [%]"
B1,18.6,37.1,52.8
B5,20.5,38.2,52.2
B6,17.9,32.9,52.2
B7,18.9,36.2,50.2
B8,20,32.8,50.1

# Target: T1, human GPC3 (Glypican-3)
# Assay: cell-based or functional assay
# Remark: another data set of the same source
row,Binder,EC50 value of cell killing activity in Huh7 cells [ng/mL]
1,B9,7.34
2,B10,16.4
3,B5,9.39
4,B6,3.59
5,B11,27.9
6,B12,30.6
7,B7,14.9
8,B8,11.9
9,B13,4.78

# Target: T1, human GPC3 (Glypican-3)
# Assay: FACS on Huh7 liver cancer cells
row,Binder,EC50 [µg/mL]
1,B1,0.0569
2,B5,0.061
3,B6,0.0673
4,B7,0.0675
5,B8,0.0633

# Target: T1, human GPC3 (Glypican-3)
# Assay: FACS on GPC3-CHO-K1 cells (CHO-K1 overexpressing human GPC3)
row,Binder,EC50 [nM]
1,B1,0.411
2,B2,0.907
3,B3,0.446
4,B4,0.956
